The values below come from the supplement of paper PMC10567573.

Sequences and labels used below:
B1: GNAI1 (parent)
chain: WIHCFEGVTAIIFCVALSDYDLVL
B2: PDS5B (parent)
chain: ITYPPGVKEISDKISKEEMVRRLK
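Further: lentivirally expressed fusions sorted by FACS into six bins by GFP to DsRed ratio, PSI derived from sequencing read proportions per bin multiplied by bin number.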

The variants in one data set derive from B1. The experiment in a line: protein stability index of a GFP-peptide fusion (GPS, HEK-293T) (PSI 1-6); higher = more stable. The settings on record: c terminus: a fixed tail appended.
On to WIHCFEGVTAIIFCVALSDYDLSL [V23S], for which the protein stability index was 2.21.
The same measure, in the same setting: for WIHCFEGVTAIIFCVALSDYDLNL [V23N] the value was 3.29; for WIHCFEGVTAIIFCVALSDYDLFL [V23F], 2.29.
Same read-out and setting: for WIHCFEGVTAIIFCVALSDYDLHL [V23H] the value was 4; for WIHCFEGVTAIIFCVALSDYDLCL [V23C], 1.55.
With WIHCFEGVTAIIFCVALSDYDLPL [V23P], the protein stability index was 2.28.
For WIHCFEGVTAIIFCVALSDYDLTL [V23T], the protein stability index turned out to be 3.6.
Take WIHCFEGVTAIIFCVALSDYDLKL [V23K]: the protein stability index was found to be 3.57.
On the same count and under the same terms, for WIHCFEGVTAIIFCVALSDYDLEL [V23E] the value was 2.71; for WIHCFEGVTAIIFCVALSDYDLYL [V23Y], 3.15.
On the same count and under the same terms, the result for WIHCFEGVTAIIFCVALSDYDLIL [V23I] reads 2.7; that for WIHCFEGVTAIIFCVALSDYDLRL [V23R], 2.89.
The same measure, in the same setting: the result for WIHCFEGVTAIIFCVALSDYTLVL [D21T] reads 4.09.
In the case of WIHCFEGVTAIIFCVALSDYGLVL [D21G], the protein stability index stood at 2.37.
In the case of WIHCFEGVTAIIFCVALSDYWLVL [D21W], the protein stability index was found to be 2.27.
In the case of WIHCFEGVTAIIFCVALSDYSLVL [D21S], the protein stability index was 2.76.
As to WIHCFEGVTAIIFCVALSDYMLVL [D21M], the protein stability index worked out at 2.88.
As to WIHCFEGVTAIIFCVALSDYNLVL [D21N], the protein stability index came out at 3.81.
Still for that read-out and setting: for WIHCFEGVTAIIFCVALSDYYLVL [D21Y] the value was 2.41; for WIHCFEGVTAIIFCVALSDYILVL [D21I], 3.09; for WIHCFEGVTAIIFCVALSDYKLVL [D21K], 3.74.
As for WIHCFEGVTAIIFCVALSDYALVL [D21A], the protein stability index turned out to be 3.49.
Turning to WIHCFEGVTAIIFCVALSDYCLVL [D21C], the protein stability index amounted to 3.01.
For the variant WIHCFEGVTAIIFCVALSDYELVL [D21E], the protein stability index is 4.04.
On to WIHCFEGVTAIIFCVALSDYRLVL [D21R], for which the protein stability index is 2.59.
Still for that read-out and setting: the result for WIHCFEGVTAIIFCVALSDYLLVL [D21L] reads 2.81.
For the variant WIHCFEGVTAIIFCVALSDYFLVL [D21F], the protein stability index was 4.12.
The same measure, in the same setting: the result for WIHCFEGVTAIIFCVALSEYDLVL [D19E] reads 3.67; that for WIHCFEGVTAIIFCVALSKYDLVL [D19K], 3.29.
On the same count and under the same terms, the result for WIHCFEGVTAIIFCVALSIYDLVL [D19I] reads 1.44; that for WIHCFEGVTAIIFCVALSSYDLVL [D19S], 2.77.
For the variant WIHCFEGVTAIIFCVALSYYDLVL [D19Y], the protein stability index worked out at 3.06.
On the same count and under the same terms, the result for WIHCFEGVTAIIFCVALSHYDLVL [D19H] reads 2.87; that for WIHCFEGVTAIIFCVALSAYDLVL [D19A], 2.02; that for WIHCFEGVTAIIFCVALSVYDLVL [D19V], 3.39.
The same measure, in the same setting: the result for WIHCFEGVTAIIFCVALSGYDLVL [D19G] reads 3.1.
As for WIHCFEGVTAIIFCVALSPYDLVL [D19P], the protein stability index was 3.43.
On the same count and under the same terms, the result for WIHCFEGVTAIIFCVALSMYDLVL [D19M] reads 1.58.
WIHCFEGVTAIIFCVALSTYDLVL [D19T]: the protein stability index came out at 4.11.
As for WIHCFEGVTAIIFCVALSLYDLVL [D19L], the protein stability index is 2.58.
Same read-out and setting: for WIHCFEGVTAIIFCVALSCYDLVL [D19C] the value was 3.67.
As to WIHCFEGVTAIIFCVALSQYDLVL [D19Q], the protein stability index was 2.96.
With WIHCFEGVTAIIFCVALSFYDLVL [D19F], the protein stability index is 3.69.
For the variant WIHCFEGVTAIIFCVALWDYDLVL [S18W], the protein stability index came to 2.62.
Same read-out and setting: for WIHCFEGVTAIIFCVALVDYDLVL [S18V] the value was 2.2; for WIHCFEGVTAIIFCVALSDYDWVL [L22W], 3.57.
On to WIHCFEGVTAIIFCVALSDYDDVL [L22D], for which the protein stability index was determined as 3.04.
The same measure, in the same setting: for WIHCFEGVTAIIFCVALSDYDFVL [L22F] the value was 2.5; for WIHCFEGVTAIIFCVALSDYDYVL [L22Y], 2.52; for WIHCFEGVTAIIFCVALSDYDAVL [L22A], 1.82.
On the same count and under the same terms, the result for WIHCFEGVTAIIFCVALSDYDVVL [L22V] reads 4.39.
In the case of WIHCFEGVTAIIFCVALSDYDSVL [L22S], the protein stability index came out at 3.61.
With WIHCFEGVTAIIFCVALSDYDNVL [L22N], the protein stability index turned out to be 1.85.
As for WIHCFEGVTAIIFCVALSDYDKVL [L22K], the protein stability index is 3.61.
Same read-out and setting: for WIHCFEGVTAIIFCVALSDYDCVL [L22C] the value was 1.87; for WIHCFEGVTAIIFCVALSDYDMVL [L22M], 2.77; for WIHCFEGVTAIIFCVALSDYDQVL [L22Q], 3.71.
In the case of WIHCFEGVTAIIFCVALSDYDHVL [L22H], the protein stability index was found to be 1.34.
With WIHCFEGVTAIIFCVALSDYDPVL [L22P], the protein stability index stood at 1.98.
Same read-out and setting: for WIHCFEGVTAIIFCVALSDLDLVL [Y20L] the value was 3.28; for WIHCFEGVTAIIFCVALSDQDLVL [Y20Q], 4.16; for WIHCFEGVTAIIFCVALSDNDLVL [Y20N], 3.6.
Regarding WIHCFEGVTAIIFCVALSDDDLVL [Y20D], the protein stability index came out at 3.02.
For WIHCFEGVTAIIFCVALSDFDLVL [Y20F], the protein stability index was found to be 3.7.
Regarding WIHCFEGVTAIIFCVALSDVDLVL [Y20V], the protein stability index came to 2.86.
Take WIHCFEGVTAIIFCVALSDEDLVL [Y20E]: the protein stability index stood at 2.71.
On the same count and under the same terms, for WIHCFEGVTAIIFCVALSDKDLVL [Y20K] the value was 2.02; for WIHCFEGVTAIIFCVALSDADLVL [Y20A], 3.
In the case of WIHCFEGVTAIIFCVALSDRDLVL [Y20R], the protein stability index was found to be 2.75.
The same measure, in the same setting: for WIHCFEGVTAIIFCVALSDGDLVL [Y20G] the value was 2.45; for WIHCFEGVTAIIFCVALSDCDLVL [Y20C], 2.61; for WIHCFEGVTAIIFCVALSDIDLVL [Y20I], 3.91.
Turning to WIHCFEGVTAIIFCVALSDMDLVL [Y20M], the protein stability index is 1.56.
Consider WIHCFEGVTAIIFCVALSDTDLVL [Y20T], for which the protein stability index amounted to 4.04.
Turning to WIHCFEGVTAIIFCVALSDSDLVL [Y20S], the protein stability index turned out to be 2.35.
On the same count and under the same terms, the result for WIHCFEGVTAIIFCVALSDYDLVA [L24A] reads 1.85; that for WIHCFEGVTAIIFCVALSDYDLVH [L24H], 3.37; that for WIHCFEGVTAIIFCVALSDYDLVT [L24T], 3.34.
In the case of WIHCFEGVTAIIFCVALSDYDLVD [L24D], the protein stability index was 2.92.
As to WIHCFEGVTAIIFCVALSDYDLVK [L24K], the protein stability index is 3.06.
The same measure, in the same setting: for WIHCFEGVTAIIFCVALSDYDLVM [L24M] the value was 2.29; for WIHCFEGVTAIIFCVALSDYDLVE [L24E], 1.42; for WIHCFEGVTAIIFCVALSDYDLVR [L24R], 3.04.
Same read-out and setting: for WIHCFEGVTAIIFCVALSDYDLVV [L24V] the value was 2.12.
On to WIHCFEGVTAIIFCVALSDYDLVQ [L24Q], for which the protein stability index worked out at 1.69.
Turning to WIHCFEGVTAIIFCVALSDYDLVI [L24I], the protein stability index amounted to 3.87.
On the same count and under the same terms, the result for WIHCFEGVTAIIFCVALSDYDLVG [L24G] reads 3.06; that for WIHCFEGVTAIIFCVALSDYDLVN [L24N], 4.75.
For WIHCFEGVTAIIFCVALSDYDLVP [L24P], the protein stability index came to 2.78.
Still for that read-out and setting: for WIHCFEGVTAIIFCVALSDYDLVF [L24F] the value was 2.34.
For the variant WIHCFEGVTAIIFCVALSDYDLVW [L24W], the protein stability index worked out at 1.92.

The variants in another data set derive from B2. The description is as above. The settings on record: c terminus: a fixed tail appended.
Consider ITYPPGVKEISDKISKMEMVRRLK [E17M], for which the protein stability index turned out to be 2.65.
Still for that read-out and setting: for ITYPPGVKEISDKISKQEMVRRLK [E17Q] the value was 3.17.
Same read-out and setting: the result for ITYPPGVKEISDKISKYEMVRRLK [E17Y] reads 2.
